We go through two substances from patent EP2718312B1.

The target in this assay is hCXCR1 (human) (UniProt P25024). Put plainly: cell-based or functional assay.
Chain of hCXCR1 (human) (P25024 whole entry): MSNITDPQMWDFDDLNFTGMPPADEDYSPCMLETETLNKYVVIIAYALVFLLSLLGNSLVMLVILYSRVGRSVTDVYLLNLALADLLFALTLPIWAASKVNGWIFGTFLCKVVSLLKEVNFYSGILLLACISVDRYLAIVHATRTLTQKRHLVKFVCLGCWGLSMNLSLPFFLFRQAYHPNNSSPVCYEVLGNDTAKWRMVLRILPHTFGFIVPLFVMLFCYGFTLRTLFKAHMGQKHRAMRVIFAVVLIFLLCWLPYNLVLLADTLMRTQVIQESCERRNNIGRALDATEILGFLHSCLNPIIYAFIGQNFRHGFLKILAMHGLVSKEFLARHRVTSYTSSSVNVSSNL

The substance “biotinIL-8 (6-78) (from UniProt P10145 28-99) (ligand)” displayed an EC50, agonist activity in an Aequorin assay of 6.1 nM.
Regarding “recombinant native IL-8 (from UniProt P10145 28-99)”, the EC50, Aequorin assay worked out at 4.2 nM.
